Reference: US20210284724A1

Legend:
Experiment in all cases: alanine scan, flow cytometry on transfected cells
[1] = target: human CXCL13 P22A (human) (UniProt O43927)
[2] = target: human CXCL13 F25A (human) (UniProt O43927)
[3] = target: human CXCL13 F20A (human) (UniProt O43927)
[4] = target: human CXCL13 R24A (human) (UniProt O43927)
Sequence of human CXCL13 R24A (human) (O43927 23-109 R46A): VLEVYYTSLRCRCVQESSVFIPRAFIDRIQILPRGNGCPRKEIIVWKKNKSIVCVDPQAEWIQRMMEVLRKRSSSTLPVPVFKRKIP

Sequence of human CXCL13 F20A (human) (O43927 23-109 F42A): as the sequence (O43927 23-109 R46A) above, with F20A, A24R counted along it
Sequence of human CXCL13 F25A (human) (O43927 23-109 F47A): as the sequence (O43927 23-109 R46A) above, with A24R, F25A counted along it
Sequence of human CXCL13 P22A (human) (O43927 23-109 P44A): as the sequence (O43927 23-109 R46A) above, with P22A, A24R counted along it

Binding reactivity (% WT) [1]: 97.4 % WT
Binding reactivity (% WT) [2]: 127 % WT
Binding reactivity (% WT) [3]: 110 % WT
Binding reactivity (% WT) [4]: 88 % WT
Substance: Control Fab
